From patent US20200057058A1 (MIT, published 2020)

Key:
streptavidin [1] = target: T1, streptavidin (UniProt P22629 37-163, limits assumed); assay: fluorescent binding curve, labeled SA in PBS, 4 h exposure
T1 construct: It was used without a stated label in the sandwich assays; also called SA
Protocol: (§1) The binding function of rcSso7d.SA oligomer-PNIPAM thin films was measured using fluorescently-labeled monomeric streptavidin (mSA2) and fluorescently-labeled streptavidin (SA). Details for the expression, purification, and fluorescent labeling of mSA2 are provided below. Samples were prepared by serial dilution of SA or mSA2 in PBS (pH 7.4), human urine (diluted to 50% v/v in PBS, pH 7.4), or blood serum (obtained as the supernatant by centrifuging whole blood at 1500×g for 10 minutes, then diluted to 50% v/v in PBS, pH 7.4). 0.5 μL drops of solutions containing serially diluted fluorescent mSA2 and fluorescent SA samples in PBS (pH 7.4) were gently applied to the surface of each bioconjugate thin film. […] Fluorescence microscopy images were acquired at 4× magnification using a Cy5 filter set and exposure time of 5000 ms on an Olympus IX-81 inverted fluorescence microscope with an AxioCam HRC CCD camera. Fluorescent intensity was calculated using ImageJ software⁶⁷ by determining the average fluorescent signal in a rectangular area of the fluorescent image free of defects and occupying no less than half of the full sample application area.
(§2) To evaluate how the apparent size-based diffusion properties translated to biosensing capabilities, binding curves were measured using SA and mSA2 solutions in buffer. […]

[2] = target: monomeric streptavidin variant mSA2; assay: fluorescent binding curve, labeled mSA2 in PBS, 4 h exposure
Protocol: as §1, §2

streptavidin [3] = target: T1, streptavidin; assay: fluorescent binding curve, labeled SA in PBS, 30 min exposure
Protocol: as §1, §2

streptavidin [4] = target: T1, streptavidin; assay: sandwich assay: SA in 50% urine, biotin-HRP/TMB detection
Protocol: (§3) Each well was submerged in 1 mL of 1% BSA in Milli-Q water, and the 12-well plate was incubated at 37° C. for 30 minutes. The wells were rinsed twice by adding 2 mL of Milli-Q water and gently shaking the well plate at 70 rpm for 5 minutes. 1 mL of streptavidin diluted in PBS, urine, or blood serum (prepared as described in the Fluorescent Assays section) containing 0.1% BSA was then added to each well, and the well plate was shaken at 70 rpm for 4 hours at room temperature. Wells were rinsed twice with 2 mL of Milli-Q water then twice with 2 mL of 0.1% BSA in Milli-Q water by shaking at 70 rpm for 5 minutes. After rinsing, wells were submerged in 1 mL of 200 ng/mL biotin-HRP in Milli-Q water containing 0.1% BSA, and the well plate was shaken at 70 rpm for 1 hour at room temperature. Wells were then rinsed with water and 0.1% BSA as described previously. 1 mL of solution from a Pierce TMB substrate kit (Thermo Fisher Scientific) was added to each well, and the well plate was shaken vigorously at 125 rpm for 15 minutes at room temperature. 1 mL of 2M H2SO4 was added to each well, and the absorbance at 450 nm was read using a Tecan Infinite M200 PRO plate reader.
(§4) The general procedure for this proof-of-concept experiment is diagrammed in FIG. 28. Films were first exposed to SA solutions and rinsed to remove unbound analyte. Taking advantage of the strong interaction between SA and biotin, thin films were then submerged in a solution of biotinylated horseradish peroxidase (biotin-HRP). Bound SA was detected colorimetrically through the HRP-mediated oxidation of 3,3′,5,5′-tetramethylbenzidine (TMB). Attempts to perform this assay using mSA2 as the analyte were unsuccessful, even when run on an rcSso7d.SA monolayer.

streptavidin [5] = target: T1, streptavidin; assay: sandwich assay, SA in 50% blood serum, detection with biotin-HRP and TMB
Protocol: as §3, §4

streptavidin [6] = target: T1, streptavidin; assay: fluorescent binding curve, labeled SA in 50% urine, 4 h; quadratic fit
streptavidin [7] = target: T1, streptavidin; assay: sandwich assay: SA in 50% blood serum, biotin-HRP/TMB detection
Protocol: as §3, §4

[8] = target: monomeric streptavidin variant mSA2; assay: fluorescent binding curve, labeled mSA2 in 50% urine, 4 h; quadratic fit
[9] = target: monomeric streptavidin variant mSA2; assay: fluorescent binding curves, labeled mSA2 in 50% urine or 50% blood serum, 4 h
streptavidin [10] = target: T1, streptavidin; assay: fluorescent binding curve, labeled SA in PBS, 4 h exposure; quadratic fit
[11] = target: monomeric streptavidin variant mSA2; assay: fluorescent binding curve, labeled mSA2 in PBS, 4 h exposure; quadratic fit
Protocol: as §1, with “film. Films were incubated in a sealed chamber saturated with water vapor at room temperature to prevent to prevent drying of the applied fluorescent samples.” for “film.”
(§5) To evaluate how the apparent size-based diffusion properties translated to biosensing capabilities, binding curves were measured using SA and mSA2 solutions in buffer. Binding curves were fit with a quadratic model that is a function of three parameters: the average MFI per binding event a, the total concentration of binding sites [P]T, and the apparent dissociation constant K_{d,app} describing the binding equilibrium between analyte and binding sites within the thin film.

streptavidin [12] = target: T1, streptavidin; assay: fluorescent binding curve, labeled SA in 50% blood serum, 4 h; quadratic fit
[13] = target: monomeric streptavidin variant mSA2; assay: fluorescent binding curve, labeled mSA2 in 50% blood serum, 4 h; quadratic fit
streptavidin [14] = target: T1, streptavidin; assay: fluorescent binding assay, labeled SA in 50% urine on thin film, 4 h exposure
[15] = target: monomeric streptavidin variant mSA2; assay: fluorescent binding assay, labeled mSA2 in 50% urine on thin film, 4 h exposure
Protocol: as §1, with “film. Films were incubated in a sealed chamber saturated with water vapor at room temperature to prevent to prevent drying of the applied fluorescent samples.” for “film.”
as §5

streptavidin [16] = target: T1, streptavidin; assay: fluorescent binding assay, labeled SA in 50% blood serum on thin film, 4 h exposure
streptavidin [17] = target: T1, streptavidin; assay: apparent Kd (Kd,app); fluorescent binding curve, labeled SA in 50% urine, 4 h; quadratic fit
[18] = target: monomeric streptavidin variant mSA2; assay: fluorescent binding assay, labeled mSA2 in 50% blood serum on thin film, 4 h exposure
Protocol: as §1, with “film. Films were incubated in a sealed chamber saturated with water vapor at room temperature to prevent to prevent drying of the applied fluorescent samples.” for “film.”
as §5

[19] = target: monomeric streptavidin variant mSA2; assay: apparent Kd (Kd,app); fluorescent binding curve, labeled mSA2 in 50% urine, 4 h; quadratic fit
streptavidin [20] = target: T1, streptavidin; assay: apparent Kd (Kd,app); fluorescent binding curve, labeled SA in PBS, 4 h exposure; quadratic fit
streptavidin [21] = target: T1, streptavidin; assay: apparent Kd (Kd,app); fluorescent binding curve, labeled SA in PBS, 0.5 h exposure; quadratic fit
[22] = target: monomeric streptavidin variant mSA2; assay: apparent Kd (Kd,app); fluorescent binding curve, labeled mSA2 in PBS, 4 h exposure; quadratic fit
Protocol: as §1, with “film. Films were incubated in a sealed chamber saturated with water vapor at room temperature to prevent to prevent drying of the applied fluorescent samples.” for “film.”
as §5

streptavidin [23] = target: T1, streptavidin; assay: apparent Kd (Kd,app); fluorescent binding curve, labeled SA in 50% blood serum, 4 h; quadratic fit
[24] = target: monomeric streptavidin variant mSA2; assay: apparent Kd (Kd,app); fluorescent binding curve, labeled mSA2 in PBS, 0.5 h exposure; quadratic fit
[25] = target: monomeric streptavidin variant mSA2; assay: apparent Kd (Kd,app); fluorescent binding curve, labeled mSA2 in 50% blood serum, 4 h; quadratic fit

T1 sequence (P22629 37-163 limits assumed): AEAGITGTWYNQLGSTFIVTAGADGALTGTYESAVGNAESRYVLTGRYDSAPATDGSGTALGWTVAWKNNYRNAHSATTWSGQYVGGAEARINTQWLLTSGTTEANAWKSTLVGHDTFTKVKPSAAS

B1: 3xSP9.6k thin film (3x rcSso7d.SA-PNIPAM conjugate, PNIPAM Mn 9.6 kDa) (designed binder)
chain: MGSSHHHHHHSSGLVPRGSHMCATVKFTYQGEEKQVDISKIKIVARDGQYIDFKYDEGGGAYGYGWVSEKDAPKELLQMLEKQGGGGSGGGGSMATVKFTYQGEEKQVDISKIKIVARDGQYIDFKYDEGGGAYGYGWVSEKDAPKELLQMLEKQGGGGSGGGGSMATVKFTYQGEEKQVDISKIKIVARDGQYIDFKYDEGGGAYGYGWVSEKDAPKELLQMLEKQGG
modifications: maleimide end-functionalized PNIPAM (Mn 9.6 kDa) on the N-terminal Cys; film lightly crosslinked with glutaraldehyde
- sensitivity relative to rcSso7d.SA monolayer (streptavidin [1]): ~2 fold
- reduction in LOD relative to rcSso7d.SA monolayer [2]: 10 fold
- sensitivity relative to rcSso7d.SA monolayer (streptavidin [3]): > 10 fold
- LOD (streptavidin [4]): 39 nM
- LOD relative to rcSso7d.SA monolayer (streptavidin [5]): 2 fold
- [P]T (total concentration of binding sites) (streptavidin [6]): 0.26 nM
- LOD (streptavidin [7]): 87 nM
- [P]T (total concentration of binding sites) [8]: 17 nM
- LOD relative to rcSso7d.SA monolayer [9]: 2 orders of magnitude lower
- [P]T (total concentration of binding sites) (streptavidin [10]): 0.9 nM
- [P]T (total concentration of binding sites) [11]: 0.7 nM
- [P]T (total concentration of binding sites) (streptavidin [12]): 0.27 nM
- [P]T (total concentration of binding sites) [13]: 9.4 nM
- Limit of Detection (streptavidin [14]): 1300 nM
- Limit of Detection [15]: 9.8 nM
- Limit of Detection (streptavidin [16]): 1700 nM
- Kd (streptavidin [17]): 30 µM
- Limit of Detection [18]: 10.5 nM
- Kd [19]: 26 µM
- Kd (streptavidin [20]): 40 µM
- Kd (streptavidin [21]): 60 µM
- Kd [22]: 3.7 µM
- Kd (streptavidin [23]): 50 µM
- Kd [24]: 11 µM
- Kd [25]: 12.2 µM
